Assay [1] deals with Baculovirus-produced recombinant purified active human Src (kinase assays) (human) (UniProt P12931). The assay is described as follows: kinase activity titration (filter-binding Src kinase assay, kinetic fit).
Assay [2] has the same target. Nature of the assay: kinase activity titration (filter-binding Src kinase assay, kinetic fit); apparent; increasing RIL alone titrated in the Src kinase reaction with peptide and ATP substrates.

For “NS1 wild type (230 aa) from A/Turkey/Italy/977/99 H7N1 (F3) (natural protein)”, the Kd in assay [1] amounted to 400 nM.

B1: recombinant human GST-tagged RIL (natural protein)
chain: MPHSVTLRGPSPWGFRLVGGRDFSAPLTISRVHAGSKAALAALCPGDLIQAINGESTELMTHLEAQNRIKGCHDHLTLSVSRPEGRSWPSAPDDSKAQAHRIHIDPEIQDGSPTTSRRPSGTGTGPEDGRPSLGSPYGQPPRFPVPHNGSSEATLPAQMSTLHVSPPPSADPARGLPRSRDCRVDLGSEVYRMLREPAEPVAAEPKQSGSFRYLQGMLEAGEGGDWPGPGGPRNLKPTASKLGAPLSGLQGLPECTRCGHGIVGTIVKARDKLYHPECFMCSDCGLNLKQRGYFFLDERLYCESHAKARVKPPEGYDVVAVYPNAKVELV
In the case of B1, in assay [1], the Kd RIL in the presence of F4 (Δ225–230) is 230 nM and the Kd RIL in the presence of F6 (Δ221–230) came out at 470 nM. Also, the Kd in assay [2] is 80 nM.

The values above are taken from paper PMC3215730.
